Target: the molecule itself
Test: X-ray crystal structure, 3.2 A, molecular replacement; one dimer per asymmetric unit
Method: One crystal was mounted in a capillary and preliminary X-ray analysis was carried out in-house using a rotating-anode radiation source (Cu Kα radiation, 50 kV, 150 mA) and MAR345 image plate detector. The crystal, however, diffracted to only 8 Å resolution and the space group could not be accurately determined. All further X-ray analysis, as well as data collection, was carried out using synchrotron radiation at the beamline X11 (EMBL/DESY Hamburg, Germany) equipped with a MAR Research CCD detector. For data collection, the crystals were cryo-protected with 20% (v/v) glycerol and flash-frozen in a 100 K nitrogen stream. Diffraction data, collected from three different crystals, were processed with the program XDS. The solvent content and Matthews coefficient were calculated assuming a molecular weight of 90 kDa per monomer and using the CCP4 suite.
The structure of VAP-1 was solved by molecular replacement using the program AMORE (Navaza, 1994) of the CCP4i program suite (Collaborative Computational Project, 1994). This method confirmed that the space group of VAP-1 crystals was P6522 with one biological unit, a dimer per asymmetric unit. […]
Electron density maps were calculated with FFT of CCP4i suite and were predictable enough to trace the VAP-1 polypeptide, even though, at the beginning of building, in several fragments. […]

B1: human vascular adhesion protein-1 (VAP-1) (enzyme)
chain: MNQKTILVLLILAVITIFALVCVLLVGRGGDGGEPSQLPHCPSVSPSAQPWTHPGQSQLFADLSREELTAVMRFLTQRLGPGLVDAAQARPSDNCVFSVELQLPPKAAALAHLDRGSPPPAREALAIVFFGRQPQPNVSELVVGPLPHPSYMRDVTVERHGGPLPYHRRPVLFQEYLDIDQMIFNRELPQASGLLHHCCFYKHRGRNLVTMTTAPRGLQSGDRATWFGLYYNISGAGFFLHHVGLELLVNHKALDPARWTIQKVFYQGRYYDSLAQLEAQFEAGLVNVVLIPDNGTGGSWSLKSPVPPGPAPPLQFYPQGPRFSVQGSRVASSLWTFSFGLGAFSGPRIFDVRFQGERLVYEISLQEALAIYGGNSPAAMTTRYVDGGFGMGKYTTPLTRGVDCPYLATYVDWHFLLESQAPKTIRDAFCVFEQNQGLPLRRHHSDLYSHYFGGLAETVLVVRSMSTLLNYDYVWDTVFHPSGAIEIRFYATGYISSAFLFGATGKYGNQVSEHTLGTVHTHSAHFKVDLDVAGLENWVWAEDMVFVPMAVPWSPEHQLQRLQVTRKLLEMEEQAAFLVGSATPRYLYLASNHSNKWGHPRGYRIQMLSFAGEPLPQNSSMARGFSWERYQLAVTQRKEEEPSSSSVFNQNDPWAPTVDFSDFINNETIAGKDLVAWVTAGFLHIPHAEDIPNTVTVGNGVGFFLRPYNFFDEDPSFYSADSIYFRGDQDAGACEVNPLACLPQAAACAPDLPAFSHGGFSHN
modifications: topaquinone (Tpq471) formed by post-translational modification of an intrinsic tyrosine at 471; N-glycan attached to Asn232; one copper ion per monomer in the active site
notes: Full-length protein was crystallized; Only residues A55-A761 and B57-B761 are modelled in the structure, with a few gaps; PDB entries are printed as IPU4 (probably 1PU4) and 1US1; also called hVAP-1; HVAP-1
Q: Does B1 bind?
A: binds

From patent US20070093646A1 (BIOTIE THERAPIES, published 2007)
